Results published in US20110263454A1, “Methods of Identifying Functional Characteristics of Promoters, Transcription Modifying Proteins and Transcription Modulating Agents” (Salk Institute for Biological Studies, priority 2008, published 2011).

Tests used:
hTNFa promoter = assay: NHR-promoter luciferase screen, hTNFa promoter; assay type: cell-based, human; details: for Luc. act., normalized to lacZ / Normalized Luc. act., normalized to control: TNFa promoter, HR component without or with ligand; for hTNFa promoter reporter activity: transcription factor +/- ligand, control = 1.00
Description: (§1) The use, feasibility, and reproducibility of the functional NHR-promoter screen in a 48-well format have been tested validated. Briefly, there were co-expressed 50 ng of each NHR/NHR homodimer or NHR/RXR heterodimer with 100 ng promoter/luciferase construct and 50 ng of LacZ (as a control for transfection efficiency) in CV-1 cells using Fugene HD (Roche) as a transfection reagent (alternatively or additionally, a CMV-YFP construct can be used as a transfection control). Each of the nuclear hormone receptors that were used in these experiments was cloned into a pcDNA3.1 vector and comprised a C-terminally linked V5H6 tag. Twenty-four hours after transfection, appropriate ligands were added, where applicable, (see Table 5 for various ligands and concentrations and after 48 hrs, samples were assayed for luciferase and LacZ activity. To measure for luciferase activity 15 ul of sample was added to 30 ul of luciferase buffer (20 mM tricine, 1.07 mM MgCarbonate, 2.67 mM MgSulfate, 0.1 mM Naz-EDTA, 5 mM DTT, 5 mM ATP, 0.15 mg/ml CoA, 0.5 mM Luciferin), mixed briefly, and run in a Perkin Elmer Victor 5 luminometer. Thus, the functional NHR-promoter screen was used to observe the transcriptional activity of 29 promoters from various physiological pathways including inflammation, lipid and sugar metabolism, cholesterol transport, xenobiotic metabolism, and circadian rhythm.
(§2) The promoters that facilitate transcription of the indicated gene products that were tested using the protocols described herein are listed in the first row of the table. The nuclear hormone receptors and, where applicable, ligands that were assayed for their transcriptional effects on the promoters are listed in the first column of the table. The data represent the luciferase activity of each sample normalized to both the lacZ activity of that sample and to a control, e.g., no NHR or ligand, as customary in the art. As described previously, these normalizations allow the transcriptional activity of each reporter cell to be compared to other samples.
(§3) Tables 7-40 show the transcriptional effects of the hormone receptors, and, where applicable, ligands (orphan receptors are screened without ligand), on each individual promoter. […] The control data of each table are shown in their last rows.

mNPY promoter = assay: NHR-promoter luciferase screen, mNPY promoter; assay type: cell-based, mouse; details: for Results of assays of transcription factor (+/- ligand) with mNPY: Table 6d, luciferase activity relative to control (control = 1.00); for Luc. act., normalized to lacZ / Normalized Luc. act., normalized to control: mNPY promoter, HR component with or without ligand; for Normalized Luc. act., normalized to control: relative to control
Description: as §1, §2, §3

hCAR promoter = assay: NHR-promoter luciferase screen, hCAR promoter; assay type: cell-based, human; details: for luciferase activity normalized to lacZ activity and to a control, hCAR: hCAR promoter-luciferase, CV-1 cells, NHR +/- ligand, control = 1.00; for Luc. act., normalized to lacZ / Normalized Luc. act., normalized to control: hCAR promoter, HR/ligand component
Description: as §1, §2, §3

B1: RVRb: Rev-Erb β (NR1D2, alternative name RVR), cDNA driver (protein, UniProt Q14995 1-579, looked up)
Nuclear receptor subfamily 1 …: MEVNAGGVIAYISSSSSASSPASCHSEGSENSFQSSSSSVPSSPNSSNSDTNGNPKNGDLANIEGILKNDRIDCSMKTSKSSAPGMTKSHSGVTKFSGMVLLCKVCGDVASGFHYGVHACEGCKGFFRRSIQQNIQYKKCLKNENCSIMRMNRNRCQQCRFKKCLSVGMSRDAVRFGRIPKREKQRMLIEMQSAMKTMMNSQFSGHLQNDTLVEHHEQTALPAQEQLRPKPQLEQENIKSSSPPSSDFAKEEVIGMVTRAHKDTFMYNQEQQENSAESMQPQRGERIPKNMEQYNLNHDHCGNGLSSHFPCSESQQHLNGQFKGRNIMHYPNGHAICIANGHCMNFSNAYTQRVCDRVPIDGFSQNENKNSYLCNTGGRMHLVCPMSKSPYVDPHKSGHEIWEEFSMSFTPAVKEVVEFAKRIPGFRDLSQHDQVNLLKAGTFEVLMVRFASLFDAKERTVTFLSGKKYSVDDLHSMGAGDLLNSMFEFSEKLNALQLSDEEMSLFTAVVLVSADRSGIENVNSVEALQETLIRALRTLIMKNHPNEASIFTKLLLKLPDLRSLNNMHSEELLAFKVHP
hTNFa promoter
  Luc. act., normalized to lacZ: 1017.6
  Normalized Luc. act., normalized to control: 1.0
  hTNFa promoter reporter activity: 1.04
mNPY promoter
  Results of assays of transcription factor (+/- ligand) with mNPY: 1.67
  Luc. act., normalized to lacZ: 140.6
  Normalized Luc. act., normalized to control: 1.7
hCAR promoter
  luciferase activity normalized to lacZ activity and to a control, hCAR: 1.13
  Luc. act., normalized to lacZ: 35.7
  Normalized Luc. act., normalized to control: 1.1

B2: RARa: Retinoic acid receptor α (NR1B1), nuclear hormone receptor cDNA driver (protein, UniProt P10276 1-462, looked up)
Retinoic acid receptor alpha: MASNSSSCPTPGGGHLNGYPVPPYAFFFPPMLGGLSPPGALTTLQHQLPVSGYSTPSPATIETQSSSSEEIVPSPPSPPPLPRIYKPCFVCQDKSSGYHYGVSACEGCKGFFRRSIQKNMVYTCHRDKNCIINKVTRNRCQYCRLQKCFEVGMSKESVRNDRNKKKKEVPKPECSESYTLTPEVGELIEKVRKAHQETFPALCQLGKYTTNNSSEQRVSLDIDLWDKFSELSTKCIIKTVEFAKQLPGFTTLTIADQITLLKAACLDILILRICTRYTPEQDTMTFSDGLTLNRTQMHNAGFGPLTDLVFAFANQLLPLEMDDAETGLLSAICLICGDRQDLEQPDRVDMLQEPLLEALKVYVRKRRPSRPHMFPKMLMKITDLRSISAKGAERVITLKMEIPGSMPPLIQEMLENSEGLDTLSGQPGGGGRDGGGLAPPPGSCSPSLSPSSNRSSPATHSP
hTNFa promoter
  Luc. act., normalized to lacZ: 1363.2
  Normalized Luc. act., normalized to control: 1.4
  hTNFa promoter reporter activity: 1.39
mNPY promoter
  Results of assays of transcription factor (+/- ligand) with mNPY: 1.24
  Luc. act., normalized to lacZ: 103.8
  Normalized Luc. act., normalized to control: 1.2
hCAR promoter
  luciferase activity normalized to lacZ activity and to a control, hCAR: 1.05
  Luc. act., normalized to lacZ: 33.2
  Normalized Luc. act., normalized to control: 1.1

B3: RORg: RAR-related Orphan Receptor γ (NR1F3), cDNA driver (protein, UniProt P51449 1-518, looked up)
Nuclear receptor ROR-gamma: MDRAPQRQHRASRELLAAKKTHTSQIEVIPCKICGDKSSGIHYGVITCEGCKGFFRRSQRCNAAYSCTRQQNCPIDRTSRNRCQHCRLQKCLALGMSRDAVKFGRMSKKQRDSLHAEVQKQLQQRQQQQQEPVVKTPPAGAQGADTLTYTLGLPDGQLPLGSSPDLPEASACPPGLLKASGSGPSYSNNLAKAGLNGASCHLEYSPERGKAEGRESFYSTGSQLTPDRCGLRFEEHRHPGLGELGQGPDSYGSPSFRSTPEAPYASLTEIEHLVQSVCKSYRETCQLRLEDLLRQRSNIFSREEVTGYQRKSMWEMWERCAHHLTEAIQYVVEFAKRLSGFMELCQNDQIVLLKAGAMEVVLVRMCRAYNADNRTVFFEGKYGGMELFRALGCSELISSIFDFSHSLSALHFSEDEIALYTALVLINAHRPGLQEKRKVEQLQYNLELAFHHHLCKTHRQSILAKLPPKGKLRSLCSQHVERLQIFQHLHPIVVQAAFPPLYKELFSTETESPVGLSK
hTNFa promoter
  Luc. act., normalized to lacZ: 1152.0
  Normalized Luc. act., normalized to control: 1.2
  hTNFa promoter reporter activity: 1.17
mNPY promoter
  Results of assays of transcription factor (+/- ligand) with mNPY: 0.91
  Luc. act., normalized to lacZ: 76.5
  Normalized Luc. act., normalized to control: 0.9
hCAR promoter
  luciferase activity normalized to lacZ activity and to a control, hCAR: 1.22
  Luc. act., normalized to lacZ: 38.6
  Normalized Luc. act., normalized to control: 1.2

B4: RVRa: Rev-Erb α (NR1D1), cDNA driver (protein, UniProt P20393 1-614, looked up)
Nuclear receptor subfamily 1 …: MTTLDSNNNTGGVITYIGSSGSSPSRTSPESLYSDNSNGSFQSLTQGCPTYFPPSPTGSLTQDPARSFGSIPPSLSDDGSPSSSSSSSSSSSSFYNGSPPGSLQVAMEDSSRVSPSKSTSNITKLNGMVLLCKVCGDVASGFHYGVHACEGCKGFFRRSIQQNIQYKRCLKNENCSIVRINRNRCQQCRFKKCLSVGMSRDAVRFGRIPKREKQRMLAEMQSAMNLANNQLSSQCPLETSPTQHPTPGPMGPSPPPAPVPSPLVGFSQFPQQLTPPRSPSPEPTVEDVISQVARAHREIFTYAHDKLGSSPGNFNANHASGSPPATTPHRWENQGCPPAPNDNNTLAAQRHNEALNGLRQAPSSYPPTWPPGPAHHSCHQSNSNGHRLCPTHVYAAPEGKAPANSPRQGNSKNVLLACPMNMYPHGRSGRTVQEIWEDFSMSFTPAVREVVEFAKHIPGFRDLSQHDQVTLLKAGTFEVLMVRFASLFNVKDQTVMFLSRTTYSLQELGAMGMGDLLSAMFDFSEKLNSLALTEEELGLFTAVVLVSADRSGMENSASVEQLQETLLRALRALVLKNRPLETSRFTKLLLKLPDLRTLNNMHSEKLLSFRVDAQ
hTNFa promoter
  Luc. act., normalized to lacZ: 1069.4
  Normalized Luc. act., normalized to control: 1.1
  hTNFa promoter reporter activity: 1.09
mNPY promoter
  Results of assays of transcription factor (+/- ligand) with mNPY: 1.09
  Luc. act., normalized to lacZ: 91.9
  Normalized Luc. act., normalized to control: 1.1
hCAR promoter
  luciferase activity normalized to lacZ activity and to a control, hCAR: 1.05
  Luc. act., normalized to lacZ: 33.3
  Normalized Luc. act., normalized to control: 1.1

B5: RARb: Retinoic acid receptor β (NR1B2), nuclear hormone receptor cDNA driver (protein, UniProt P10826 1-455, looked up)
Retinoic acid receptor beta: MTTSGHACPVPAVNGHMTHYPATPYPLLFPPVIGGLSLPPLHGLHGHPPPSGCSTPSPATIETQSTSSEELVPSPPSPLPPPRVYKPCFVCQDKSSGYHYGVSACEGCKGFFRRSIQKNMIYTCHRDKNCVINKVTRNRCQYCRLQKCFEVGMSKESVRNDRNKKKKETSKQECTESYEMTAELDDLTEKIRKAHQETFPSLCQLGKYTTNSSADHRVRLDLGLWDKFSELATKCIIKIVEFAKRLPGFTGLTIADQITLLKAACLDILILRICTRYTPEQDTMTFSDGLTLNRTQMHNAGFGPLTDLVFTFANQLLPLEMDDTETGLLSAICLICGDRQDLEEPTKVDKLQEPLLEALKIYIRKRRPSKPHMFPKILMKITDLRSISAKGAERVITLKMEIPGSMPPLIQEMLENSEGHEPLTPSSSGNTAEHSPSISPSSVENSGVSQSPLVQ
hTNFa promoter
  Luc. act., normalized to lacZ: 1854.5
  Normalized Luc. act., normalized to control: 1.9
  hTNFa promoter reporter activity: 1.89
mNPY promoter
  Results of assays of transcription factor (+/- ligand) with mNPY: 1.17
  Luc. act., normalized to lacZ: 97.9
  Normalized Luc. act., normalized to control: 1.2
hCAR promoter
  luciferase activity normalized to lacZ activity and to a control, hCAR: 1.31
  Luc. act., normalized to lacZ: 41.4
  Normalized Luc. act., normalized to control: 1.3
